T1: human KLK5 (human, UniProt Q9Y337 67-293)
T1 sequence: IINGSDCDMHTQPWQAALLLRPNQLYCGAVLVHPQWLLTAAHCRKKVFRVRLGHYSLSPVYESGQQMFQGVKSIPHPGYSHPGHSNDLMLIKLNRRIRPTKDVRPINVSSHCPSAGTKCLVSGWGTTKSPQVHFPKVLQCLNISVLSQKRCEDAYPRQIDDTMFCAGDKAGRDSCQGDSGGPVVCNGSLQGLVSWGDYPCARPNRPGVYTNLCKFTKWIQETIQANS

T2: mouse KLK5 (mouse)
T2 chain: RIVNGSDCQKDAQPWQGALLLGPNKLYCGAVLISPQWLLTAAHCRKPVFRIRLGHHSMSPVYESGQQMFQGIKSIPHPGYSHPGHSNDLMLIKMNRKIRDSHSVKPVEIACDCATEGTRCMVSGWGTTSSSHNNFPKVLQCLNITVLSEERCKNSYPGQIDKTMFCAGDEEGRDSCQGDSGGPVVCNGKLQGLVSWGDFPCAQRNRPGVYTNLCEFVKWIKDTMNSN

T3: mouse KLK14 (mouse, UniProt Q8CGR5 24-250)
T3 sequence: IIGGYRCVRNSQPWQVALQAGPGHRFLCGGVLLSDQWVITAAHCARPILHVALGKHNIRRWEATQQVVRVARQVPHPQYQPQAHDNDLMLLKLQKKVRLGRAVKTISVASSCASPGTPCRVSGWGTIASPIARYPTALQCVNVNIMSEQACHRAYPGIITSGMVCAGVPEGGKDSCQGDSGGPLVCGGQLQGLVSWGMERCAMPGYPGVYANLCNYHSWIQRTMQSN

T4: human KLK14 (human, UniProt Q9P0G3 25-251)
T4 sequence: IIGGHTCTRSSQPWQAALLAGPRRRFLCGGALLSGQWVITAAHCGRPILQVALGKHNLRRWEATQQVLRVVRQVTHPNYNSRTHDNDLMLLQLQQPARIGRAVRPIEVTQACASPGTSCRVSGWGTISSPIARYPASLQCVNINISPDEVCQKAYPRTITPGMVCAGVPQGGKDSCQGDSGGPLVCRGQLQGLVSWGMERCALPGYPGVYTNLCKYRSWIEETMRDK

T5: KLK8 (human, UniProt O60259)
T5 construct: prepared by the inventors; 5 nM in the assay; substrate Boc-Val-Pro-Arg-AMC 100 µM; also called Human KLK8; hKLK8
T5 sequence (protease, looked up): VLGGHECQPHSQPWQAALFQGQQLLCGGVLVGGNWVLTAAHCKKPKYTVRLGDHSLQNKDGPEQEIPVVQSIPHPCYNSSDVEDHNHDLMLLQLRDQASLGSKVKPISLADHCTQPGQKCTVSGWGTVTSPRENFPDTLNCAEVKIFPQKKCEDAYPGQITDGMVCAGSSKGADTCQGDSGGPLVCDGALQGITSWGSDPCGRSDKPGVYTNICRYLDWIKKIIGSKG


Legend:
human KLK5 [1] = biological target: T1, human KLK5; assay: cell-based or functional assay
mouse KLK5 = biological target: T2, mouse KLK5; assay: cell-based or functional assay
mouse KLK7 = mouse KLK7 (mouse, UniProt Q91VE3 26-249); assay: cell-based or functional assay
Chain of mouse KLK7 (Q91VE3 26-249): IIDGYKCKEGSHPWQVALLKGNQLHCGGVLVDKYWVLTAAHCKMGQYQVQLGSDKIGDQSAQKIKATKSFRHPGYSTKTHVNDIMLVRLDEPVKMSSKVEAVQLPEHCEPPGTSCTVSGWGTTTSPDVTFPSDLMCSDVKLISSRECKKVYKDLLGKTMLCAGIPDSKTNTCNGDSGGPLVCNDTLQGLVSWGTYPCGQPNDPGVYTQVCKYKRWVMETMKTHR

mouse KLK14 = biological target: T3, mouse KLK14; assay: cell-based or functional assay
Plasmin = biological target: T6, Plasmin (human, UniProt P00747); assay: fluorogenic peptide substrate cleavage, 1 µM inhibitor
T6 construct: commercial enzyme (Sigma-Aldrich, P1867); 50 nM in the assay; substrate Boc-Val-Leu-Lys-MCA 100 µM; also called Human plasmin
T6 sequence (P00747 97-810 limits assumed): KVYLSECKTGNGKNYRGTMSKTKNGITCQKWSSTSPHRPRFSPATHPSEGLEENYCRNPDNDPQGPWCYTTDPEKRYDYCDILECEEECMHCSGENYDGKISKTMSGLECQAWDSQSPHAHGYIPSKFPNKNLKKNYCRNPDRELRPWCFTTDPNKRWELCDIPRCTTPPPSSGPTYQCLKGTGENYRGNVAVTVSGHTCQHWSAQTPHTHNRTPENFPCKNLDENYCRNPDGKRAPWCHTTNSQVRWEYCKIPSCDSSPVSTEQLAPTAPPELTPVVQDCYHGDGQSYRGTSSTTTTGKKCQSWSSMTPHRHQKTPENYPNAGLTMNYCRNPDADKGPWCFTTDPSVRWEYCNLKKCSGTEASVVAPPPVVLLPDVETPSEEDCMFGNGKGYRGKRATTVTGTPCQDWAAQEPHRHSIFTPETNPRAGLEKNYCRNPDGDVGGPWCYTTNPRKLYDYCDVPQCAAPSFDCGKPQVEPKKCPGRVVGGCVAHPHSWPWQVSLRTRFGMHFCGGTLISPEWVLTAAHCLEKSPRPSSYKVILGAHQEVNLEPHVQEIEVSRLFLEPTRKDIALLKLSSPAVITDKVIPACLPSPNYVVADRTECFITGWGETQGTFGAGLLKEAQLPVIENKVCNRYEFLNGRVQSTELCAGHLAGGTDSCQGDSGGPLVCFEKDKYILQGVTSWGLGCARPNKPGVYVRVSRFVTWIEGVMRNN
Description: FIG. 3C includes graphs to evaluate the cross-reactivity of each inhibitory peptide with proteases, using the degradation of a peptide substrate as an index. For evaluating the Human plasmin inhibitory activity, plasmin (Sigma-Aldrich Co. LLC, P1867) with a final concentration of 50 nM and a substrate peptide Boc-Val-Leu-Lys-MCA (PEPTIDE […], INC., 3104-v) with a final concentration of 100 μM were used. For evaluating the Human thrombin inhibitory activity, thrombin (Sigma-Aldrich Co. LLC, T6884) with a final concentration of 1 nM and a substrate peptide Boc-Val-Pro-Arg-AMC (R&D Systems, Inc., ES011) with a final concentration of 100 μM were used. For evaluating the Human neutrophil elastase inhibitory activity, neutrophil elastase (Enzo Life Sciences, BML-SE284) with a final concentration of 0.00001 U/μL and a substrate peptide Suc (OMe)-Ala-Ala-Pro-Val-MCA (PEPTIDE […], INC., 3153-v) with a final concentration of 100 μM were used.
The specificities for other proteases were evaluated using the degradation of a substrate peptide as an index. […] Thereafter, 50 μL of a substrate diluted with an assay buffer was added thereto, and the fluorescence signal was measured using Enspire (PerkinElmer). […]

KLK4 = biological target: T7, KLK4 (human, UniProt Q9Y5K2); assay: as above
T7 construct: commercial enzyme (R&D Systems, 1719-SE); 1 µg/mL in the assay; substrate Boc-Val-Pro-Arg-AMC 100 µM; also called Human KLK4; hKLK4
T7 sequence (Q9Y5K2 31-254 limits assumed): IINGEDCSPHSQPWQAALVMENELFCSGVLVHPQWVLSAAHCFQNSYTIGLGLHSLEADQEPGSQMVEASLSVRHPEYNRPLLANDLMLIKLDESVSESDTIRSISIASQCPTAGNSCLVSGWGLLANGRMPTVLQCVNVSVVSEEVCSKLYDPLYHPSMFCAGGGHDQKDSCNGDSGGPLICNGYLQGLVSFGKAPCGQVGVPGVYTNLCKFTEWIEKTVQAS
Description: FIG. 3F includes graphs to evaluate the cross-reactivity of each inhibitory peptide with proteases, using the degradation of a peptide substrate as an index. For evaluating the Human KLK1 inhibitory activity, hKLK1 (R&D Systems, Inc., 2337-SE) with a final concentration of 0.1 μg/mL and a substrate peptide Pro-Phe-Arg-MCA (PEPTIDE […], INC., 3096-v) with a final concentration of 100 μM were used. For evaluating the Human KLK2 inhibitory activity, hKLK2 (R&D Systems, Inc., 4104-SE) with a final concentration of 2 μg/mL and a substrate peptide Pro-Phe-Arg-MCA (PEPTIDE […], INC., 3096-v) with a final concentration of 100 μM were used. For evaluating the Human KLK4 inhibitory activity, hKLK4 (R&D Systems, Inc., 1719-SE) with a final concentration of 1 μg/mL and a substrate peptide Boc-Val-Pro-Arg-AMC (R&D Systems, Inc., ES011) with a final concentration of 100 μM were used.
(§1) The specificities for other proteases were evaluated using the degradation of a substrate peptide as an index. As in the method described in (3-1), 25 μL each of a protease and a sample diluted with an assay buffer were mixed (to a final concentration of sample of 1 μM), followed by a reaction at 37° C. for 20 minutes. Thereafter, 50 μL of a substrate diluted with an assay buffer was added thereto, and the fluorescence signal was measured using Enspire (PerkinElmer). An assay buffer (50 mM Tris, 150 mM NaCl, pH 8.0) was used for the evaluation of the protease activity, and a PROTEOSAVE® SS96F black plate (Sumitomo Bakelite Co., Ltd.) was used for the reaction and the measurement. The combinations of the protease and the substrate used for the evaluation of the specificity were as follows.

human KLK5 [2] = biological target: T1, human KLK5; assay: SPR, BIAcore T200; biotinylated KLK5 captured on chip, peptide as analyte; single cycle kinetics, 1:1 model
Description: In order to measure the binding affinity of the KLK5 inhibitory peptides, surface plasmon resonance analysis was conducted using BIAcore T 200 (GE healthcare). A complementary strand of DNA of a streptavidin conjugate was captured by hybridization on Sensor Chip CAP (GE healthcare) on which single-stranded DNA immobilized. Next, KLK5 biotinylated using EZ-Link NHS-PEG4-Biotin (Thermo Fisher Scientific) was captured at a flow rate of 10 μL/min to immobilize about 10 RU. Thereafter, the KLK5 inhibitory peptide, serially diluted 2-fold with HBS-EP (0.625 to 10 nM), was added thereto as an analyte at a flow rate of 30 μL/min. In the BIAcore T 200 Evaluation software (version 2.0), kon and koff were calculated by analysis using Single cycle kinetics in a simple one-to-one Langmuir binding model. The dissociation constant KD was calculated as a ratio of koff/kₒₙ. Further, multiple KLK5 inhibitory peptides were measured by regenerating Sensor Chip CAP using a Regeneration buffer attached to a Biotin CAPture Kit (GE healthcare) and repeatedly capturing biotinylated KLK5.

human KLK14 = biological target: T4, human KLK14; assay: cell-based or functional assay
KLK8 = biological target: T5, KLK8; assay: fluorogenic peptide substrate cleavage, 1 µM inhibitor
Description: FIG. 3G includes graphs to evaluate the cross-reactivity of each inhibitory peptide with proteases, using the degradation of a peptide substrate as an index. For evaluating the Human KLK7 inhibitory activity, hKLK7 with a final concentration of 1 μg/mL and a substrate peptide Mca-Arg-Pro-Lys-Pro-Val-Glu-Nval-Trp-Arg-Lys (Dnp)-NH₂ (R&D Systems, Inc., ES002) with a final concentration of 20 μM were used. For evaluating the Human KLK8 inhibitory activity, hKLK8 (UniProt: 060259, prepared by the inventors) with a final concentration of 5 nM and a substrate peptide Boc-Val-Pro-Arg-AMC (R&D Systems, Inc., ES011) with a final concentration of 100 μM were used. For evaluating the Human KLK12 inhibitory activity, hKLK12 (R&D Systems, Inc., 3095-SE) with a final concentration of 0.1 μg/mL and a substrate peptide Boc-Val-Pro-Arg-AMC (R&D Systems, Inc., ES011) with a final concentration of 100 μM were used.
as §1

human KLK7 = human KLK7 (human, UniProt P49862 30-253); assay: cell-based or functional assay
Chain of human KLK7 (P49862 30-253): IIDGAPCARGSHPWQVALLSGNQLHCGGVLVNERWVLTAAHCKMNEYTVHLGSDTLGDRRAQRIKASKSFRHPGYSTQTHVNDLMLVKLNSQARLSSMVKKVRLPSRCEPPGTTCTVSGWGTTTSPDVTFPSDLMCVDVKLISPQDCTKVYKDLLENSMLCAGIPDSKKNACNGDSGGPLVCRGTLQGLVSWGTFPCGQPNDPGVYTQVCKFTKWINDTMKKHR

bChymotrypsin = assay: fluorogenic peptide substrate cleavage, 1 µM inhibitor
Description: FIG. 3A includes graphs to evaluate the cross-reactivity of each inhibitory peptide with proteases, using the degradation of a peptide substrate as an index. For evaluating the Bovine trypsin inhibitory activity, trypsin (Pierce, 20233) with a final concentration of 5 nM and a substrate peptide Boc-Val-Pro-Arg-AMC (R&D Systems, Inc., ES011) with a final concentration of 100 μM were used. For evaluating the Human trypsin inhibitory activity, trypsin (Sigma-Aldrich Co. LLC, T6424) with a final concentration of 1 nM and a substrate peptide Boc-Val-Pro-Arg-AMC (R&D Systems, Inc., ES011) with a final concentration of 100 μM were used. For evaluating the Bovine α-chymotrypsin inhibitory activity, chymotrypsin (Worthington Biochemical Corporation, LS001434) with a final concentration of 10 nM and a substrate peptide Suc-Leu-Leu-Val-Tyr-MCA (PEPTIDE […], INC., 3120-v) with a final concentration of 100 μM were used.
as §1

| Binder | IC50(nM) for hKLK5 (human KLK5 [1]) | IC50(nM) for mKLK5 (mouse KLK5) | IC50(nM) for mKLK7 (mouse KLK7) | IC50(nM) for mKLK14 (mouse KLK14) | binding result (Plasmin) | binding result (KLK4) | Kd (human KLK5 [2]) | koff (human KLK5 [2]) | kon (human KLK5 [2]) | IC50(nM) for hKLK14 (human KLK14) | binding result (KLK8) | IC50(nM) for hKLK7 (human KLK7) | binding result (bChymotrypsin) |
| --- | --- | --- | --- | --- | --- | --- | --- | --- | --- | --- | --- | --- | --- |
| KLK5 inhibitory peptide K51034 (SPINK2 mutant peptide made in E. coli) GPQFGLFSKYRTPNCGRYTTGGCNKEYEPVCGSDMSTYANECTLCMKIREGGHNIKIIRNGPCGG | 6.4 nM | 54 nM | > 1000 nM | > 1000 nM | binds | binds | 0.068 nM | 3.5e-05 s⁻¹ | 520000 M⁻¹ s⁻¹ | – | – | – | – |
| KLK5 inhibitory peptide K50062 (SPINK2 mutant peptide made in E. coli) GPQFGLFSKYRTPNCQQYRELGCGRQYDPVCGSDMSTYANECTLCMKIREGGHNIKIIRNGPCGG | 7.5 nM | 10 nM | > 1000 nM | > 1000 nM | – | binds | 0.0025 nM | 2.9e-06 s⁻¹ | 1.2e+06 M⁻¹ s⁻¹ | 499 nM | binds | – | – |
| KLK5/KLK7 inhibitory peptide K50031 (SPINK2 mutant peptide made in E. coli) GPQFGLFSKYRTPNCGEYKGRGCYYHYDPVCGSDMSTYANECTLCMKIREGGHNIKIIRNGPCGG | 5.4 nM | 40 nM | 4 nM | 244 nM | – | – | 0.061 nM | 5e-05 s⁻¹ | 820000 M⁻¹ s⁻¹ | > 1000 nM | – | 13 nM | binds |
| KLK5/KLK7 inhibitory peptide K51057 (SPINK2 mutant peptide made in E. coli) GPQFGLFSKYRTPNCGTMQGSGCTYHYEPVCGSDMSTYANECTLCMKIREGGHNIKIIRNGPCGG | 12 nM | 149 nM | 27 nM | 437 nM | – | – | 0.26 nM | 0.0015 s⁻¹ | 6e+06 M⁻¹ s⁻¹ | > 1000 nM | – | 24 nM | binds |
